Data taken from the nanobody polyreactivity screen of Harvey et al. (2022).

Test: yeast display, Sf9 membrane polyspecificity reagent, FACS + sequencing; frameworks hold sequencing errors
Method in brief: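 Synthetic nanobody libraries on Saccharomyces cerevisiae BJ5465 were galactose-induced for 36–48 hours, stained 1 hour at 4 °C with 10% biotinylated, detergent-solubilized Sf9 membrane reagent and enriched on streptavidin microbeads. FACS then separated cells into low and high (top ~1%) gates by anti-HA (expression) and streptavidin (reagent binding) fluorescence. Genes were colony-PCR amplified, MiSeq 2 × 250 sequenced and CDR-length filtered. A clone's polyreactivity label is that of its gate of origin.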

Sequence	polyreactivity (PSR sort gate)
QVQLVESGGGLVQAGGSLRLSCAASGFIFRFYAMGWYRQAPGKERELVAAISSDGSTNYADSVKGRFTISRDNAKNTVYLQMNSLKPEDTAVYYCNADYYEYYSGPTLVVYIYGYWGQGTQVTVSS	low polyreactivity
QVQLVESGGGLVQAGGSRRLSCAASGSIFYLYAMGWSRQAPGKERELVATITWSGGSTYYADSVKGRFTISRDTAKNTVYLQMNSLKPEDTAVYYCAATALEWYPAVYNQYYYWGQGTQVTVSS	low polyreactivity
QVQLVESGGGLVQAGGSLRLSCASSGRTLPYNAMGWYRQAPGKERELVAAISKRGSSTYYADSVKGRFTLSRDNAKNTVYLQMNSLKPEDTAVYYCAKGGSFYYWGQGTQVTVSS	high polyreactivity
QVQLVESGGGLVQAGGSLRLSCAASGNIFVFYVMGWYRPAPGKERELVASISSTGNTYYADSVKGRFTISRDNAKNTVYLQMNSLKPEDTAVYYCNADPIFVYSSYNYWGQGTQVTVSS	low polyreactivity
QVQLVESGGGLVQAGGSLRLSCAASGSIFVKYAMGWYRQAPGKERELVAAITTGVGSTYYADSVKGRFTISRDNAKNTVYLQMNSLKPEDTAVYYCAAETIDYWYILEYDYWGQGTQVTVSS	low polyreactivity
QVQLVQSGGGLVQAGGSLRLSCAASGSTFPTNAMGWYRQAPGKERELVAAITSTGSTYADSVKGRFTISRDNAKNTVYLQMNSLKPEDTAVYYCAADTQWTTPYDYWGQGTQVTVSS	low polyreactivity
QVQLVESGGGLVQAGGSLRLSCAASGRIFPRNTMGRYRQAPGKERELVAGITSGGGTYYADSVKGRFTISRDNAKNTVYFQMNRLKPEDTAVFYCAARPWRSRYYGGLGRRFDYWGQGTQVTVSS	high polyreactivity
QVQLVESGGGLVQAGGSLRLSCAASGFIFWYYDMGWYRPAPGKEREFVAAITRSSGSTYYADSVKGRFTISRDNAKNTVYLQMNSLKPEDTAVYYCNADSVAYGDEYDYWGQGTQVTVSS	low polyreactivity
QVQLVESGGGLVQAGGSLRLSCAASGRIFYYYAMGWYRPAPGKERELVAAINRDGGRTYYADSVKGRFTISRDNAKNTVYLQMNSLKPEDTAVYYCAASYGYVYTTSLDYWGQGTQVTVSS	low polyreactivity
QVQLVESGGGLVQAGGSLRLSCDASGFTFVSYAMGSYRQAPGKERELVAVISYRAGSTYYADSVKGRFTISRDNAKNTVYLPMYSLKPEDTAVYYCATDRYSRRNDYWGQGTQVTVSS	high polyreactivity
QDQIVESCGGLVQAGGSLRLSCASSGNIIYPKAMGWYRQAPGKERDLVAAISTSRGSTYYADSVKGRFTISRDNAKNTVYLQMNSLKPEDTAVYYCNRRGPYGYKAWAIGTIGDLDYWGQGTQVTVSS	low polyreactivity
LVQLVESGGGLVQAGGSLRLSCAASGSTSRKYTMGWYRQSPGKERELVARITSSGSSTYYADSVKGRFTISRDTAKNTVYLQMNSLKAEDTADYYCNARAHSDRKSSYIYLPYSYDYWGQGTQVTVSS	high polyreactivity
QFQLVESGGGLVQAGGSLRLSCAASGRTFRSNTMGWYRQAPGKEREFVAVITYSAGSTYYADSVKGRFTISRDNAKNTVYLQMNSLKPEDTAVYYCAARVSWWPYDWYGYWGQGTQVTVSS	high polyreactivity
QVQLVESGGGLVQAGGSLRLSCAASGSIFKPYAMGWYRQAPGKERELVAAITRSGGSTYYADSVKGRFTISRDKAKNTVYLQMNSLKPEDTAVYYCAAGNAPYFRYGSKKYGYWGQGTQVTVSS	high polyreactivity
QVQLVESGGGIVQAGGTLRLSCAASGSTFFYYVMGWYRQAPGKERELVAAITSSGGGTYYADSVKGRFTISRDNAKNTVYLQMKSLKPEDTAVYYCAKPVWWRDYRHGGRFGYWGQGTQVTVSS	low polyreactivity
QVQLEESGGGLVQAGGSLRLSCAASGRTITNYAMGWYRQAPGKERELVASINSGGSTSYADSVKGRFTISRDNAKNTVYLQMNSLKPEDTAVYYCNKRYLKFWGHQYGYWGQGTQVTVSS	high polyreactivity
QVQLVESGGGLVQAGGSLRLSCAASGGTFFTNAMGWYRHAPGKERELVAVITGSGGRTYYADSVKGRFTISRDNAMNTVYLQMNSLKPEDTAVYYCAARGYSWGQGTQVTLSS	high polyreactivity
QVQLVESGGGLVQAGGSLRLSCAASGRTFSGYAMGWYRQAPGKERELVATITWSSGSTYYADSVKGRFTISRDNAKNTVYLQMNSLKPEDTAVYYCNADQGSALRWSYDYWGQGTQVTVSS	low polyreactivity
QVQLVESGGGLVQAGGSLRLSCAASGRIFYVYAMGWYRQAPGKERELVATITYRGDTDYADSVKGRFTSSRDNAKNTVYLQMNSRKPEDTAVYYCAKDFEAGDDYFAYDYWGQGTQVTVSS	low polyreactivity
QVQLVESGGGLVQAGGSLRLSCAASGSIFHWNAKGWYRQAPGKERELVAGITTSGGTTYYADSVKGRFTISRDNAKNTVYLQMNSLKPEDTAVYYCAARIIRWRPRWPSYGKYDYWGQGTQVTVSS	low polyreactivity
QVQLEESGGGLVQAGGRLRLSCAASGIIFEYYAMGGYRQAPGTERELVAAIFSGGSTYYADSVKGRFTISGDNAKNNVYLQMNSLKPEDTAVYYCAADYFAWGQGTQVTVSS	high polyreactivity
QVQLVESGGGLVQAGGSLRLSCAASGSIFRAYAMGWYRQAPGKERELVAAISWGGGSTSYADSVKGRFTLSRDNAKNTVYLQMNSLNPEDTAVYYCNKVSLSKRRDYYWGQGTQVTVSS	high polyreactivity

Sequence	polyreactivity (PSR sort gate)
QVQLVESGGGLVQAGGSLRLSCAASGSILRGYAMGWYRQAPGKERELVAAITWNGGSTYYADSVKGRFTISRDNAKNTVYLQMNSLKPEDTAVYYCNRAIGPYSYPDNYWGQGTQVTVSS	high polyreactivity
QVQLVESGGGLVQAGGSLRLSCAASGNTFGRYAMGWYRQAPGKERELVAAITKRGGTTYYADSVKGRFTISRDNAKNTVYLKMNSLKPEDTAVYYCAAKRSVLRTADYDYWGQGTQVTVSS	high polyreactivity
QVQLVESGGGLVQAGGSLRLSCAASGSIFDYYAMGWYRQAPGKERELVAAISGTGGSTYYADSVKGRFTISRDNAKNTVYLQMNSLKPEDTAVYYCNAGRHILTALRNDGTFDYWGQGTQVTVSS	high polyreactivity
QVQLVESGGGLVQAGGSLRLSCAASGSIFAYYAMGWYRQAPGKERELVARITYSTDGTYYADSVKGRFTISRDNAKNTVYLQMNSLKPEDTAVYYCAVDTWWGFKRYKFDYWGQGTQVTVSS	low polyreactivity
QVQLVESGGGLVQAGGSLRLSCAASGRIFYVYTMGWYRQAPGKERELVAAISWSGGSTHYADSVKGRFTIARDNAKNTVYLQMNSLKPEDTAVYYCNKGVVSRVAFEYWGQGTQVTVSS	low polyreactivity
QVQLVESGGGLVQAGGSLRLSCAASGFIFKTYAMGWYRQAPGKERELVATITRRGGRTYYADSVKGRFTISRDNAKNTVYLQMNSLKPEDTAVYDCAADYALSSLPFDYWGQGTQVTVSS	high polyreactivity
QVQLVESCGGLVQAGGRLRLSCADYGRTFSWYAMGSYRQAPGKERELVAAITFRGGRTYYADSVKGRFTISRDNAKNTVYIQMNSLKPEDTAVYYFNAVTYSSPYRFDYCGQGTQVTVSS	low polyreactivity
QVQLVESGGGLDQAGGSLRLICAASGSTFYIYAMGWYRQAPGKEREFVAAIDFSGSSTYADSVKGRFTISRDNAKNPVYLQMNTLKPEDTAVYYCAAYQIYQYDGPYDYWGQGTQVTVSS	low polyreactivity
QVQLVESGGGLVQAGGSLSLICAASGRNFYTYAMGWYRQAPGKERELVAAISWSGGSTYYADSVKGRFTISRDNAKNTVYLQMNSLNPEDTAVYYCNARFRFGWPGYDYWGQGTQVTVSS	high polyreactivity
QVQLVESGGGLVQAGGSLRLSCAASGIIFGDNGMGWYRQAPGKERELVAVITSGDGTNYADSVKGRFTISRDNANNTFYLQMNSLKPEDTAVYYCAADFRIVVYGWGGSHMDYWGKGTQVTVSS	low polyreactivity
QVQLVESGGGLVQAGGSLRLSCAASGSIFESYARGWYRHSPGKERELVADITYHGGITYYADSVKGRFTISRDNAKNNFYLQMNSLKPEDTSVYYCAAESEKWYNYVLSYDWEYDYWGQGTQVTVSS	low polyreactivity
QVQLVESGGGLVQAGGILRLSCAASGSIFEYNAMGRYRKPPGKERELCASISWSGGSTYYADSVKGRYTISRDNAKNTVYLQMYSLKPEATAVYYCNVRKWSRWFRESYYWGQGTQVTVSS	high polyreactivity
QVPLVESGGGLVQAGGSLRLSCAACGFIFGSYSMGWYRQAPGKERELVAAITSDGNTDYADSVKGRFTISRDNAKNTVYLQMNSLKPEDTAVYYCATDWVDHYDYWGQGTQVTVSS	low polyreactivity
QVQLVESGGGLVQAGGSIRLSCAASGFTFDQYAMGWYRQAPGKERELVAAISSGTRTYYADSVKGRFTISRDNAKNTVYLQMNSLKPEDTAVYYCIARSVRYRDLYDYWGQGTQVTVSS	low polyreactivity
QDQLEESGGGLVQEGGSLRLSCAASGFTFRGYAMGWYRQAPGKERELVAAISYSGGSTYYADSVKGRFTISRDNAMNSVYLQMNSLKPEDTAVYFCAARGGGKVRHRGTYDYWGQGTQVTVSS	high polyreactivity
QVQLVESGGGLVQAGGSLRLSCAASGRTLPEYGMGWSRQAPGKEREFVAAISTRGGSTYYANSVKGRFTISRDNAKNTVYLQMNSLKPEDTAVYYCAKVYDRSCGDYWGQGTQVTVSS	low polyreactivity
QVQLVESGGGLVQAGGSLRLSCAASGRTSKVYAMGWYRQAPGTERELVAAITRGNTYYADSVKGRFTISRDNAKNTVYLQMNSLKPEDTAVYYCAADYRYWLSYFKKYDYWGQGTQVTVSS	high polyreactivity
QVQLVESGGGIVQAGGSLRLSCAASGLTIPPNAMGWYRQAPGKEREFVAAITWSGGSTYYADSVKGRFTISRDNAKNTVYLQMNRLKPEDSAVYYCNRVTAYYPTKFDYWGQGTQVTVSS	high polyreactivity
QVQLVESGGGLVQAGGRLRLSCAASGSTFGYYAMGWYRQAPGKERELVAAITFSVGGTYYADSVKGRFTISRDNAKNTVYLQMNSLKPEDTAVYYCNVDYYVPPAGVTRTGDDVYWGKGTQVTVSS	low polyreactivity
QVQLVESGGGLVQAGGSLRLSCAASASIFNYYAMGRYRQAPGKERELVAAITSGGSTYYADSVKGRFSISRDNAKNTVYLQMNSVKPEDTAVYYCNKAFPYIYDYWGQGTQVTVSS	low polyreactivity
QVQLVESGGGIVQAGGSLRLSCAASGSTYNLNALGWSRQAPGKERELVAAIDSGGRTNYADSVKGRFTISRDNAKNTVYVQMNSLKPEDTAVYYCAADVYAYPGSWYDYWGQGTQVTVSS	low polyreactivity
